Test results reported in article PMC420458 (BMC Cell Biology, 2004).
Values belong to the binder of their own block, whether it stands above or below them.

Assays:
[1] = molecular target: T1, GST-HEF1 (human, UniProt Q14511 1-834); assay: pull-down
T1 sequence: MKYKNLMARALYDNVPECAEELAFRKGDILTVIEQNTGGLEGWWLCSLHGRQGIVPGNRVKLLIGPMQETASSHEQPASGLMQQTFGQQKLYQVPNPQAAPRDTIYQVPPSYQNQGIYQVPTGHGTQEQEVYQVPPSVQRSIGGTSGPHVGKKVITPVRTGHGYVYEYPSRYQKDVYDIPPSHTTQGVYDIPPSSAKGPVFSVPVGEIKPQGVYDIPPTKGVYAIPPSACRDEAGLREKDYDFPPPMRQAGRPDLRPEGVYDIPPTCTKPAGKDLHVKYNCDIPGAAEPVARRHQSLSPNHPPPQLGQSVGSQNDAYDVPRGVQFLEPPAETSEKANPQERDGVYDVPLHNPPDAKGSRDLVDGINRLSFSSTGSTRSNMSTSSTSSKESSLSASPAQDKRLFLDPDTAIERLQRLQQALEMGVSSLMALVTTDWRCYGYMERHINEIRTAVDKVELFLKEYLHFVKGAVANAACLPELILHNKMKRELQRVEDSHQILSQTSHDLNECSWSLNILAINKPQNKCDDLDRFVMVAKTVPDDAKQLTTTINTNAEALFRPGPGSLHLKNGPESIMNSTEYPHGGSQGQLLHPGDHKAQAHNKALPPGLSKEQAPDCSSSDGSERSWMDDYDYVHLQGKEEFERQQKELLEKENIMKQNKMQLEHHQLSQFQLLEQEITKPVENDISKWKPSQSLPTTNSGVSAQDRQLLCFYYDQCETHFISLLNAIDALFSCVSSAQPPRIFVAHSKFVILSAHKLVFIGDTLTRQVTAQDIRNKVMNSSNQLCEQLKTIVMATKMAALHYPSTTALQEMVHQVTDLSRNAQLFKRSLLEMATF

[2] = molecular target: GST-APC10 (UniProt Q9UM13 1-185); assay: pull-down
Chain of GST-APC10 (Q9UM13 whole entry): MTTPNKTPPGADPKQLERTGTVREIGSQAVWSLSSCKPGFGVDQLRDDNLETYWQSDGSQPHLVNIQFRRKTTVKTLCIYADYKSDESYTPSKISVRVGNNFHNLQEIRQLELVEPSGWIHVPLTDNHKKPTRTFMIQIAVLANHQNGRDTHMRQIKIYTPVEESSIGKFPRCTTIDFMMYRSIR

B1: Flag-tagged Smad3 d4 (domain or fragment)
chain: MSSILPFTPPIVKRLLGWKKGEQNGQEEKWCEKAVKSLVKKLKKTGQLDELEKAITTQNVNTKCITIPRSLDGRLQVSHRKGLPHVIYCRLWRWPDLHSHHELRAMELCEFAFNMKKDEVCVNPYHYQRVETPVLPPVLVPRHTEIPAEFPPLDDYSHSIPENTNFPAGIEPQSNIPETPPPGYLSEDGETSDHQMNHSMDAGSPNLSPNPMSPAHNNLDLQPVTYCEPAFWCSISYYELNQRVGETFHASQPSMTVDGFTDPSNSERFCLGLLSNVNRNAAVELTRRHIGRGVRLYYIG
- percent of input protein bound (densitometry) [1]: 13%
- percent of input protein bound (densitometry) [2]: 17%

B4: Flag-tagged Smad3 d2 (domain or fragment)
chain: MSSILPFTPPIVKRLLGWKKGEQNGQEEKWCEKAVKSLVKKLKKTGQLDELEKAITTQNVNTKCITIPRSLDGRLQVSHRKGLPHVIYCRLWRWPDLHSHHELRAMELCEFAFNMKKDEVCVNPYHYQRVETPVLPPVLVPRHTEIPAEFPPLDDYSHSIPENTNFPAGIEPQSNIPETPPPGYLSEDGETSDHQMNHSMDAGSPNLSPNPMSPAHNNLDLQPVTYCEPAFWCSISYYELNQRVGETFHASQPSMTVDGFTDPSNSERFCLGLLSNVNRNAAVELTRRHIGRGVRLYYIGGEVFAECLSDSAIFVQSPNCNQRYGWHPATVCKIPPGCNLKIFNNQEFAALLAQSVNQGFE
- percent of input protein bound (densitometry) [1]: 21%
- percent of input protein bound (densitometry) [2]: 95%

Results, then the binder that gave them:

- percent of input protein bound (densitometry) [1]: 23%
- percent of input protein bound (densitometry) [2]: 34%
B2: Flag-tagged Smad3 d6 (domain or fragment)
chain: MSSILPFTPPIVKRLLGWKKGEQNGQEEKWCEKAVKSLVKKLKKTGQLDELEKAITTQNVNTKCITIPRSLDGRLQVSHRKGLPHVIYCRLWRWPDLHSHHELRAMELCEFAFNMKKDEVCVNPYHYQRVETPVLPPVLVPRHTEIPAEFPPLDDYSHSIPENTNFPAGIEPQSNIPETPPPGYLSEDGETSDHQMNHSMDAGSPNLSPNPMSPAHNNLDLQPVTYCEPAFWCSISYYELNQRVGETFHASQPSMTVDGFTDPSNSERFCLGLLSNVNRNAAVELTRRHIGRGVRLYYIGGEVFAECLSDSAIFVQSPNCNQRYGWHPA

- percent of input protein bound (densitometry) [1]: 24%
- percent of input protein bound (densitometry) [2]: 20%
B3: Smad3/Smad1/Smad3 chimera (other)
chain: MSSILPFTPPIVKRLLGWKKGEQNGQEEKWCEKAVKSLVKKLKKTGQLDELEKAITTQNVNTKCITIPRSLDGRLQVSHRKGLPHVIYCRLWRWPDLHSHHELRAMELCEFAFNMKKDEVCVNPYHYQRVETPVLPPVLVPRHTEIPAEFPPLDDYSHSIPENTNFPAGIEPQSNIPETPPPGYLSEDGETSDHQMNHSMDAGSPNLSPNPMSPAHNNLDLQPVTYCEPAFWCSISYYELNNRVGEAFHASSTSVLVDGFTDPSNNKNRFCLGLLSNVVNRNAAVELTRRHIGRGVRLYYIGGEVFAECLSDSAIFVQSPNCNQRYGWHPATVCKIPPGCNLKIFNNQEFAALLAQSVNQGFEAVYQLTRMCTIRMSFVKGWGAEYRRQTVTSTPCWIELHLNGPLQWLDKVLTQMGSPSIRCSSV
